Molecular target: African cassava mosaic virus (ACMV) capsid protein expressed in fission yeast (African cassava mosaic virus (ACMV-[Nigeria-Ogo]))
Assay: SDS-PAGE with Western blot

African cassava mosaic virus (ACMV) capsid protein expressed in fission yeast (natural protein)
stoichiometry N: 2

From publication PMC4974525
